In this assay the target is T1, ATM, phosphorylated (activated) (human, UniProt Q13315 2-3056, phosphorylated (activated state; site not given)).
T1 construct: Endogenous protein co-immunoprecipitated from PSC27 cell lysates; also called p-ATM
As to the kind of experiment: IP with p-TAK1 antibody from lysates of bleomycin-treated PSC27 cells, Western blot (FIG. 2).

T1 sequence (Q13315 2-3056 limits assumed): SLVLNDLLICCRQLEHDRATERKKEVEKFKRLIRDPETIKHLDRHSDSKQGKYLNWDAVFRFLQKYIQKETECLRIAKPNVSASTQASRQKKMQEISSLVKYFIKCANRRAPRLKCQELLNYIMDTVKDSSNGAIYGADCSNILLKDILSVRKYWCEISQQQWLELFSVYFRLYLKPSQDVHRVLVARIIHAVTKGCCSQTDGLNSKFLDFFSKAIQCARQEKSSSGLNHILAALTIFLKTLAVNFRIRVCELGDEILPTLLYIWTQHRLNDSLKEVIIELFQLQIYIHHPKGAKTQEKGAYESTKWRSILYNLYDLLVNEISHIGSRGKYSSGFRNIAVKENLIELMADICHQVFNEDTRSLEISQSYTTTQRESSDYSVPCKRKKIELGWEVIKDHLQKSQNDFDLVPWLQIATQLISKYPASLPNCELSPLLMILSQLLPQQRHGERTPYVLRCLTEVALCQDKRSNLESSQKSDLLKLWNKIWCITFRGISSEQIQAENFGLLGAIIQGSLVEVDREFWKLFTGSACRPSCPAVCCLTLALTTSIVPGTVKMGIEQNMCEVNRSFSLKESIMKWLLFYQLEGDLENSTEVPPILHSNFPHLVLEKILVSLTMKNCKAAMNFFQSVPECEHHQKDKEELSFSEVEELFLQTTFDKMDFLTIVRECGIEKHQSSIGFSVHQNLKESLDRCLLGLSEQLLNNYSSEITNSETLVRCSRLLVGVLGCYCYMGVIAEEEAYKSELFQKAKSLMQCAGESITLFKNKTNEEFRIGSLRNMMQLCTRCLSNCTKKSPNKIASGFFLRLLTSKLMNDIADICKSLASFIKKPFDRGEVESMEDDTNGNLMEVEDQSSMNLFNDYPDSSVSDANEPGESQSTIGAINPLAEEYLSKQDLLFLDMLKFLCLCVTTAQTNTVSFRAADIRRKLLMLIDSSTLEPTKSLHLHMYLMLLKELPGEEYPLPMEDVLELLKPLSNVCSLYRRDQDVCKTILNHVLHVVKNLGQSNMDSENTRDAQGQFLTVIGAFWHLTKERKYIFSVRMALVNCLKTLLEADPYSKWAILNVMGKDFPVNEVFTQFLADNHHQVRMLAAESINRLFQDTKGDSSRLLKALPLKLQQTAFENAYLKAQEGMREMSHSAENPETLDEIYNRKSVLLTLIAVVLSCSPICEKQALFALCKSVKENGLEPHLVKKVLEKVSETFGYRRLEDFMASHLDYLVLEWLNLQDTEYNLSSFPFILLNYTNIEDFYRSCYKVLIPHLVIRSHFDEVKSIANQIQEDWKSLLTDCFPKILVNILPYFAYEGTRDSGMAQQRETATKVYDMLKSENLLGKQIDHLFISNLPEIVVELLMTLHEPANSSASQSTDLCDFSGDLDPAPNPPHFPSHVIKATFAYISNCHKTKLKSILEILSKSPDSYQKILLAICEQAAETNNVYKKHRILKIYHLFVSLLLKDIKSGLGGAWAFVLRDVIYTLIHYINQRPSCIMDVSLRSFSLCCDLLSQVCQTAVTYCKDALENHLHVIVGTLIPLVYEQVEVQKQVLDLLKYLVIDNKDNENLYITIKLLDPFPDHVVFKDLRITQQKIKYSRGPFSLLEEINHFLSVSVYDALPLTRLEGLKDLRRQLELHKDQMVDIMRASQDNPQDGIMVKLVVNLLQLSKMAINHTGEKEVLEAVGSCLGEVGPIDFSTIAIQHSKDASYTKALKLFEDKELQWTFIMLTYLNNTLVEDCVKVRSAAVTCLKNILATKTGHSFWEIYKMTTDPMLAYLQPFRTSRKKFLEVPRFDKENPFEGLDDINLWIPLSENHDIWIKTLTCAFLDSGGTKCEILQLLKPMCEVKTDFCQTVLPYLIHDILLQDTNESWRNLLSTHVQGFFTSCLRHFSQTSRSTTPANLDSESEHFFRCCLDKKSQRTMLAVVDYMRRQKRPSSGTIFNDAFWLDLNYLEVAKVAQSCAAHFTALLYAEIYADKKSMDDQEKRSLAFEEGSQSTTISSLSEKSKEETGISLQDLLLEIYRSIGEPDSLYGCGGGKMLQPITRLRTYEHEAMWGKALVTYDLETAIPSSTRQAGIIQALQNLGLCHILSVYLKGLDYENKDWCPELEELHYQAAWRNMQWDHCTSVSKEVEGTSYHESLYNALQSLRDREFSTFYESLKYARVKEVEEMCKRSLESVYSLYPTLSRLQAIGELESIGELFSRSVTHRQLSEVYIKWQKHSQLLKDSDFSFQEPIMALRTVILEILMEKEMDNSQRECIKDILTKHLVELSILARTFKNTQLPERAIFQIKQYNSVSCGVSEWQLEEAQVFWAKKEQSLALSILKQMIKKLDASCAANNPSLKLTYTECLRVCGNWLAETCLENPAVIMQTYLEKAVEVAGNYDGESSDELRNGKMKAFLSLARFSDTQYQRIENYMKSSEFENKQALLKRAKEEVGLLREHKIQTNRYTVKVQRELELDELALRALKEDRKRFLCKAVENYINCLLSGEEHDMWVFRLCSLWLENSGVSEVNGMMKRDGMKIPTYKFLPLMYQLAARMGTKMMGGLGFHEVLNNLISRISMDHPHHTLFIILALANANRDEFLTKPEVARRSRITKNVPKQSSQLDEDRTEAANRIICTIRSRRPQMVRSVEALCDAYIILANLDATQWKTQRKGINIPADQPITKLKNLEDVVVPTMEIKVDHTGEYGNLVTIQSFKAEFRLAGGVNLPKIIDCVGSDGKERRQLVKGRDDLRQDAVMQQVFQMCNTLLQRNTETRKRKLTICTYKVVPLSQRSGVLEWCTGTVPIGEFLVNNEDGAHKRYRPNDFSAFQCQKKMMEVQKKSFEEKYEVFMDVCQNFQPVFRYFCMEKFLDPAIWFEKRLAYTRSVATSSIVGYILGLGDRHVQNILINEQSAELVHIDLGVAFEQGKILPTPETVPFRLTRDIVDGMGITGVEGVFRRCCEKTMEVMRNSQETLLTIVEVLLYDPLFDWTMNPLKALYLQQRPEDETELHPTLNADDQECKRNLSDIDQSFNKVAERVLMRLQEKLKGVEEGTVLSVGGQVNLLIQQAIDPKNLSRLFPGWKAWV

B1: Transforming growth factor kinase 1 (TAK1), phosphorylated (activated) (enzyme, human, UniProt O43318 1-606, looked up)
chain: MSTASAASSSSSSSAGEMIEAPSQVLNFEEIDYKEIEVEEVVGRGAFGVVCKAKWRAKDVAIKQIESESERKAFIVELRQLSRVNHPNIVKLYGACLNPVCLVMEYAEGGSLYNVLHGAEPLPYYTAAHAMSWCLQCSQGVAYLHSMQPKALIHRDLKPPNLLLVAGGTVLKICDFGTACDIQTHMTNNKGSAAWMAPEVFEGSNYSEKCDVFSWGIILWEVITRRKPFDEIGGPAFRIMWAVHNGTRPPLIKNLPKPIESLMTRCWSKDPSQRPSMEEIVKIMTHLMRYFPGADEPLQYPCQYSDEGQSNSATSTGSFMDIASTNTSNKSDTNMEQVPATNDTIKRLESKLLKNQAKQQSESGRLSLGASRGSSVESLPPTSEGKRMSADMSEIEARIAATTAYSKPKRGHRKTASFGNILDVPEIVISGNGQPRRRSIQDLTVTGTEPGQVSSRSSSPSVRMITTSGPTSEKPTRSHPWTPDDSTDTNGSDNSIPMAYLTLDHQLQPLAPCPNSKESMAVFEQHCKMAQEYMKVQTEIALLLQRKQELVAELDQDEKDQQNTSRLVQEHKKLLDENKSLSTYYQQCKKQLEVIRSQQQKRQGTS
modifications: phosphorylated (activated state; site not given)
notes: Endogenous protein immunoprecipitated with a p-TAK1 antibody from PSC27 cell lysates; also called p-TAK1
For the molecule B1, the binding result is “no binding”.

Source of the values: patent US20210030836A1 (SHANGHAI INSTITUTE OF NUTRITION AND HEALTH CHINESE ACADEMY …, published 2021).
